Source: US20250346643A1, “TROPOMYOSIN KINASE RECEPTOR (TRK) LIGANDS AS THERAPEUTICS TO SUPPORT LIVER REGENERATION” (Vanderbilt University, priority 2024, published 2025)

Tested on: primary mouse hepatocytes
Test: Cell proliferation assay (CellTiter-Glo) in primary mouse hepatocytes
Type: cell-based
Conditions: for increase of primary hepatocyte proliferation: HGF 5 ng/ml, serum-free medium (FIG. 9M); for cell proliferation, comparison of NTF3, HGF, BDNF and NAS: BDNF and HGF 20 ng/ml, NAS 500 nM (FIG. 16E)
Procedure: Primary hepatocyte isolation. Pdgfrb-GFP-negative or H-2Kd mice older than 4 months were anesthetized and cannulated via the portal vein. Livers were perfused with about 25 ml of pre-warmed Liver Perfusion Medium (Gibco, Waltham, MA; 17707-038) followed by about 50 ml Liver Digestion Medium (Gibco, Waltham, MA; 17703-034). Liver capsule was gently teased apart with tweezers and hepatocytes released. Cells were taken up in Hepatocyte Wash Buffer (Gibco, Waltham, MA; 17704-024) and filtered through 100 μm mesh. Cells were then centrifuged for 2 min at 100 g, 4° C. and cell pellet resuspended in ice cold 10 ml DMEM (Gibco, Waltham, MA; 11885-084)/5% FBS. 10 ml of ice cold 100% Percoll®/PBS (GE HealthCare, Chicago, IL; GE17-0891-01) was added for gradient purification and cells centrifuged for 10 min at 200 g, 4° C. Cell pellet was resuspended with 20 ml DMEM/5% FBS and centrifuged for 2 min at 100 g, 4° C. 1-2×10^3 hepatocytes were plated on collagen-coated 96-well plates in DMEM/5% FBS/Pen/Strep. Rat tail collagen I (Gibco, Waltham, MA; A1048301) was used for coating. Cell culture media was changed 3 hours after plating with either serum-free William's E media (Gibco, Waltham, MA) containing Pen/Strep (Gibco, Waltham, MA) or DMEM/5% FBS/Pen/Strep. NTF3 (STEMCELL technologies, Vancouver, Canada) was added 1 day after plating at a final concentration of 20 ng/ml and primary hepatocytes cultured for 3 days with NTF3 until analysis.
Cell proliferation assays. Primary mouse hepatocytes, HepG2 or AML 12 cells were grown in opaque-walled 96-well plates. NTF3 (final concentration 20 ng/ml) (STEMCELL Technologies, Vancouver, Canada; cat. 78074) and/or Loxo-195 (final concentration 5 nM) (Selleckchem, Houston, TX; S8636) were added into complete growth media without L-glutamine. Primary mouse hepatocytes were also grown in serum-free William's E media without supplements. Cells were analyzed by CellTiter-Glo® (Promega G7570, Madison, WI) which detects the number of viable cells on day 0 to day 5 by on detection systems GloMax® (Promega) or Bioteck Synergy H1 (Agilent, Santa Clara, CA). Mouse recombinant HGF (Abcam, Cambridge, UK; ab281797) was added to cell culture media at a final concentration 5 ng/ml. TRKB inhibitor ANA-12 (Selleckchem, Houston, TX; S7745) was diluted in DMSO (10 mM stock solution) and added to cell culture media at a final concentration of 10 nM.
Primary mouse hepatocyte isolation. Mice were anesthetized and cannulated via the portal vein. Livers were perfused with ˜25 ml of prewarmed liver perfusion medium (Gibco, Waltham, MA; 17707-038) followed by ˜50 ml of liver digestion medium (Gibco, Waltham, MA; 17703-034). The liver capsule was gently teased apart with tweezers, and hepatocytes were released. Cells were taken up in Hepatocyte Wash Buffer (Gibco, Waltham, MA; 17704-024) and filtered through a 100-μm mesh. Cells were then centrifuged for 2 min at 100 g, 4° C., and the cell pellet was resuspended in 10 ml of ice-cold DMEM (Gibco, Waltham, MA; 11885-084)/5% FBS. […] of ice-cold 100% Percoll®/PBS (GE HealthCare, Chicago, IL; GE17-0891-01) were added for gradient purification, and cells were centrifuged for 10 min at 200 g, 4° C. The cell pellet was resuspended with 20 ml of DMEM/5% FBS and centrifuged for 2 min at 100 g, 4° C. A total of 1×10^3 to 2×10^3 hepatocytes were plated on collagen-coated 96-well plates in DMEM/5% FBS/Pen/Strep. Rat tail collagen I (Gibco, Waltham, MA; A1048301) was used for coating. Cell culture media were changed 3 hours after plating with either serum-free William's E media (Gibco, Waltham, MA) containing Pen/Strep (Gibco, Waltham, MA) or DMEM/5% FBS/Pen/Strep. […]

| Molecule | synergism with HGF on primary hepatocyte proliferation (NTF3 20 ng/ml + HGF 5 ng/ml, serum-free medium (FIG. 9N)) | increase of primary hepatocyte proliferation (NTF3 20 ng/ml) [fold] | cell proliferation vs control-treated hepatocytes (NTF3 20 ng/ml, serum-free and serum-containing media (FIG. 8F, 9D)) | cell proliferation, comparison of NTF3, HGF, BDNF and NAS | cell proliferation (BDNF 20 ng/ml (FIG. 16C)) |
| --- | --- | --- | --- | --- | --- |
| NTF3: neurotrophin-3, recombinant protein; HSC-derived hepatocyte mitogen, ligand of TRKA, TRKB, TRKC | no synergistic effects | 1.5 | significantly higher |  |  |
| HGF: hepatocyte growth factor, complete hepatocyte mitogen used as comparator (protein, UniProt Q08048 33-495; Q08048 496-728, looked up) Hepatocyte growth factor …: QKKRRNTLHEFKKSAKTTLTKEDPLLKIKTKKVNSADECANRCIRNRGFTFTCKAFVFDKSRKRCYWYPFNSMSSGVKKGFGHEFDLYENKDYIRNCIIGKGGSYKGTVSITKSGIKCQPWNSMIPHEHSFLPSSYRGKDLQENYCRNPRGEEGGPWCFTSNPEVRYEVCDIPQCSEVECMTCNGESYRGPMDHTESGKTCQRWDQQTPHRHKFLPERYPDKGFDDNYCRNPDGKPRPWCYTLDPDTPWEYCAIKTCAHSAVNETDVPMETTECIQGQGEGYRGTSNTIWNGIPCQRWDSQYPHKHDITPENFKCKDLRENYCRNPDGAESPWCFTTDPNIRVGYCSQIPKCDVSSGQDCYRGNGKNYMGNLSKTRSGLTCSMWDKNMEDLHRHIFWEPDASKLNKNYCRNPDDDAHGPWCYTGNPLIPWDYCPISRCEGDTTPTIVNLDHPVISCAKTKQLR Hepatocyte growth factor beta …: VVNGIPTQTTVGWMVSLKYRNKHICGGSLIKESWVLTARQCFPARNKDLKDYEAWLGIHDVHERGEEKRKQILNISQLVYGPEGSDLVLLKLARPAILDNFVSTIDLPSYGCTIPEKTTCSIYGWGYTGLINADGLLRVAHLYIMGNEKCSQHHQGKVTLNESELCAGAEKIGSGPCEGDYGGPLICEQHKMRMVLGVIVPGRGCAIPNRPGIFVRVAYYAKWIHKVILTYKL |  | 2.6 |  | more potent |  |
| BDNF: brain-derived neurotrophic factor, neurotrophin specific for TrkB (protein) HSDPARRGELSVCDSISEWVTAADKKTAVDMSGGTVTVLEKVPVSKGQLKQYFYETKCNPMGYTKEGCRGIDKRHWNSQCRTTQSYVRALTMDSKKRIGWRFIRIDTSCVCTLTIKRGR |  |  |  | induce proliferation to a similar extent | significantly induced proliferation |
